Test results from article PMC9813072 (Osteoporosis International, 2022).

Key:
[1] = assay type: in vivo, healthy men and postmenopausal women; settings: single SC 20 μg; N = 105 per treatment
[2] = cited from earlier work
serum calcium = settings: teriparatide 20 μg once a day; cited from earlier work

Row | Substance | Total adverse events, subjects [1] | Total adverse events, number of events [1] [e] | Half-life ([2]; after SC injection) | Time to peak serum concentration ([2]; after SC injections of 20, 40, and 80 μg) | Absolute bioavailability ([2]; following SC administration) [%] | Median increase of serum calcium at peak (serum calcium) [mg/dL]
1 | Teriparatide biosimilar: potential biosimilar of teriparatide developed by Intas Pharmaceutical Ltd., India; test product | 8 (7.62%) n (%) |  |  |  |  | 
2 | US-teriparatide: Forteo®, Lilly USA; US-approved teriparatide reference product | 3 (2.86%) n (%) | 3 |  |  |  | 
3 | Teriparatide |  |  | approximately 1 h | approximately 30 min | 95 | 0.4
4 | EU-teriparatide: Forsteo®, Eli Lilly, The Netherlands; EU-approved teriparatide reference product | 4 (3.81%) n (%) | 5 |  |  |  | 
